What was measured:
[1] = biological target: GST-CA-Rac1 (constitutively-active Rac1 fused to GST) (UniProt P63000); assay: pull-down; GST fusion (GST-RacWT, GST-CA-Rac1 or GST-alone) on glutathione-agarose beads; 550-1000 ug total lysate of HP cells, unstimulated or treated with TGFβ1 (10 ng/mL) up to 60 min; 2 h at 4 °C; three washes; immunoblot for Trio or CdGAP (LiCor)
[2] = biological target: GST-Rac1 (wild type Rac1 fused to GST) (UniProt P63000); assay: as above

CdGAP, sequence (Q2M1Z3 whole entry): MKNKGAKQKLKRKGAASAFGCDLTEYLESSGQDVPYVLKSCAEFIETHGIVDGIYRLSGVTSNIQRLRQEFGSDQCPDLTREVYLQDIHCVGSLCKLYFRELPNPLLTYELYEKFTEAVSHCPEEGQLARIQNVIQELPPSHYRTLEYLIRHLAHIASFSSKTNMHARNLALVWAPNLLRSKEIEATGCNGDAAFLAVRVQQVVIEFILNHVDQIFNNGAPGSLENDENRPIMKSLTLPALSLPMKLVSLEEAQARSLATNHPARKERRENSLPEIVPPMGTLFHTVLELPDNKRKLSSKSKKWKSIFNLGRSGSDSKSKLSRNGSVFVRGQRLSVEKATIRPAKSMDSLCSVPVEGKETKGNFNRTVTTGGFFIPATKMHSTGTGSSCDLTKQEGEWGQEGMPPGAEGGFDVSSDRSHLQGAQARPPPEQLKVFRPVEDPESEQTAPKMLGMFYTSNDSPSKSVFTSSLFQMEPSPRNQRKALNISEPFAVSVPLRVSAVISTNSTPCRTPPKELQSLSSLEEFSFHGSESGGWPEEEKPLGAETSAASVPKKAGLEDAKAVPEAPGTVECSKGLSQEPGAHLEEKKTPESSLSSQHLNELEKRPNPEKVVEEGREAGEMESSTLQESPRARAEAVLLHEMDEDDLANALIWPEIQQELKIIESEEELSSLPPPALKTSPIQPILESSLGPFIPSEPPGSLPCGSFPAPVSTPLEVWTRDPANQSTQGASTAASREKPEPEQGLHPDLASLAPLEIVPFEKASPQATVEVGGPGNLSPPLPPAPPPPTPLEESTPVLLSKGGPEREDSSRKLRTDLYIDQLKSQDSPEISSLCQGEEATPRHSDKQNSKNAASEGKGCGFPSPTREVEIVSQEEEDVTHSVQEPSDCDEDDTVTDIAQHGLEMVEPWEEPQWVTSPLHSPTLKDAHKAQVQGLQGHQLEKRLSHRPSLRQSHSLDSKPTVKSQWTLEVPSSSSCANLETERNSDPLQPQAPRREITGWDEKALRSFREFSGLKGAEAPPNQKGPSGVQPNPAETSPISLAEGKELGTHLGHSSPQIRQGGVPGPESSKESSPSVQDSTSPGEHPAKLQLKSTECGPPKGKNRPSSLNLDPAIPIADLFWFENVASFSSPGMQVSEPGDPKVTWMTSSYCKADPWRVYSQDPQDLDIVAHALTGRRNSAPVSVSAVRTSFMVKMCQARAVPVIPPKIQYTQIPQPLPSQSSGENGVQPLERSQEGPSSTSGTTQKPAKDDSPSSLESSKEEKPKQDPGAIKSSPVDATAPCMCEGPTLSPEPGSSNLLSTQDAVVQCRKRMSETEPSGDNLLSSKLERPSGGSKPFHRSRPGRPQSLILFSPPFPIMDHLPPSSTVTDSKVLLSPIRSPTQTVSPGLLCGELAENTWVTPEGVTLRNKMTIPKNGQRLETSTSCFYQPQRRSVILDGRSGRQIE

fold change of CdGAP pulled down by GST-CA-Rac1, 30 min TGFβ1 against 0 min [1] [fold]	fold change of CdGAP pulled down by GST-CA-Rac1, 45 min TGFβ1 against 0 min [1] [fold]	fold change of CdGAP pulled down by GST-CA-Rac1, 60 min TGFβ1 against 0 min [1] [fold]	fold change of Trio bound to GST-Rac1, 45 min TGFβ1 against unstimulated [2] [fold]	Substance
1.55	1.56	1.53	–	CdGAP (from UniProt Q2M1Z3 1-1444) (natural protein)
–	–	–	1.82	Trio, O75962 1-3097 (natural protein; other documents disagree on this pair)

— publication PMC5855701
